Data from patent US20250057927A1, “ALPHA-1 A[…] FROM YEAST FOR USE IN THE TREATMENT OF VIRAL INFECTIONS” (priority 2021, published 2025).
“Also recorded” adds a separate entry of the source. Structures can show the parent of a compound that is named as a salt.

Experiments:
[1] = tested on: Main Protease of coronaviruses; details: enzymatical assays; cited from earlier work
[2] = tested on: PEDV; details: pretreatment, Vero-E6 cells; cited from earlier work
[3] = tested on: SARS-CoV-2; details: pretreatment, Vero-E6 cells; cited from earlier work
[4] = molecular target: TMPRSS2 of Caco2 cells (UniProt O15393); assay: cell-based or functional assay
[5] = tested on: Covid-19; set-up: species or system patients; details: in vivo
[6] = tested on: lentiviral SARS-CoV-2 pseudoparticles; type: cell-based
[7] = tested on: protease-mediated entry of SARS-CoV-2; details: in vitro; cited from earlier work
[8] = molecular target: TMPRSS2 of Caco2 cells (UniProt O15393 1-492); assay: cell-based or functional assay
[9] = molecular target: T1, recombinant human TMPRSS2 (Homo sapiens, UniProt O15393); assay: TMPRSS2 activity assay (fluorogenic reporter peptide substrate); type: biochemical; details: dose-dependent; read-out: IC50 of TMPRSS2 proteolytic activity
T1 construct: purchased LSBio LS-G57269
Description: The respective protease (TMPRSS2 or neutrophil elastase) is mixed with a serial dilution of rhAAT, camostat mesylate or Prolastin resulting in the formation of a complex between the test compound and the protease. Subsequently, a fluorogenic reporter peptide substrate is added. Upon cleavage of the reporter peptide substrate by the protease, a fluorescent dye is set free.
For assessing the activity of recombinant human TMPRSS2, 25 μl of serially diluted Prolastin, camostat mesylate or rhAAT is incubated with 25 μl of 2 μg/ml recombinant TMPRSS2 enzyme (LSBio #LS-G57269) in assay buffer (50 mM Tris-HCL, […] NaCl pH 8.0) for 15 min at 37° C. Next, 50 μl of 20 μM BOC-Gln-Ala-Arg-AMC protease substrate (Bachem #4017019) is added and incubated for 2 h at 37° C. Fluorescence intensity is measured after 2 h at an excitation wavelength of 380 nm and emission wavelength of 460 nm in a Synergy™ H1 microplate reader (BioTek) with Gen5 3.04 software. The assay is performed in a 96 well plate with flat bottom.

[10] = tested on: SARS-CoV-2; type: cell-based
[11] = tested on: Caco-2 cells; details: in the tested concentrations

Chain of TMPRSS2 of Caco2 cells (UniProt O15393 1-492) (O15393 whole entry): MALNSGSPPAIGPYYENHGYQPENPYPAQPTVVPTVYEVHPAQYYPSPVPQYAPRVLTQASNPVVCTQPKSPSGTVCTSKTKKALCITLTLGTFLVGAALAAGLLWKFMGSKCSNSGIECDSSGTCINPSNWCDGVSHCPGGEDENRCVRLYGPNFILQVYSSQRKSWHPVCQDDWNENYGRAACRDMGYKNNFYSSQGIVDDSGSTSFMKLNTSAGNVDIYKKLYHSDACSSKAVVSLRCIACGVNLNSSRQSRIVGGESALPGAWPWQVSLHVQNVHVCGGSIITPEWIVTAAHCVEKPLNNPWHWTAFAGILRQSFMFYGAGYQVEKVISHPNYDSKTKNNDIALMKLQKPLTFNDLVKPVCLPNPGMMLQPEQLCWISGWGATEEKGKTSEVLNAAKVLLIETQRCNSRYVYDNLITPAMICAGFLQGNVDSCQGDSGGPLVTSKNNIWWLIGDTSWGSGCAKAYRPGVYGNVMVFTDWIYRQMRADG
Chain of TMPRSS2 of Caco2 cells (UniProt O15393) (O15393 whole entry): as above
T1 sequence (O15393 whole entry): as above

For `COc1cc(O)c(CC=C(C)C)c(O)c1C(=O)/C=C/c1ccc(O)cc1` [Xanthohumol], the “inhibition of protease activities” value [1] is given as “inhibited protease activities”, the PEDV replication [2] is given as “restricted” and the SARS-CoV-2 replication [3] is given as “restricted”.

In the case of “Prolastin: human serum derived AAT (from UniProt P01009 25-418)”, the IC50 of inhibiting pseudoparticle entry into Caco2 cells (Prolastin) [4] is reported as 3160 µg/mL and the estimated IC90 of pseudoparticle entry into Caco2 cells, derived from FIG. 4 [4] is reported as 20000 µg/mL.

In the case of Prolastin, the Covid-19 rapid tests [5] is reported as “negative”, the symptoms [5] is reported as “no symptoms” and the “inhibition of the entry of SARS-CoV-2 pseudoparticles” value [6] is reported as “inhibits the entry of SARS-CoV-2”.

With `CN(C)C(=O)COC(=O)Cc1ccc(OC(=O)c2ccc(NC(=N)N)cc2)cc1` [camostat mesylate, reference compound] the “inhibition of the entry of SARS-CoV-2 pseudoparticles” value [6] was “inhibits the entry of SARS-CoV-2”.

In the case of AAT, the “Covid-19 PCR test” value [5] is given as “negative”, the symptoms [5] is given as “significantly improved; also recorded: no symptoms” and the “restriction of protease-mediated entry of SARS-CoV-2” value [7] is given as “potently restricts”.

B1: rec α1AT from supernatant of Pichia pastoris X33, anion exchange fractions 52 and 53 (other)
chain: EDPQGDAAQKTDTSHHDQDHPTFNKITPNLAEFAFSLYRQLAHQSNSTNIFFSPVSIATAFAMLSLGTKADTHDEILEGLNFNLTEIPEAQIHEGFQELLRTLNQPDSQLQLTTGNGLFLSEGLKLVDKFLEDVKKLYHSEAFTVNFGDTEEAKKQINDYVEKGTQGKIVDLVKELDRDTVFALVNYIFFKGKWERPFEVKDATEEEDFHVDQVTTVKVPMMKRLGMFNIQHCKKLSSWVLLMKYLGNATAIFFLPDEGKLQHLENELTHDIITKFLENEDRRSASLHLPKLSITGTYDLKSVLGQLGITKVFSNGADLSGVTEEAPLKLSKAVHKAVLTIDEKGTEAAGAMFLEAIPMSIPPEVKFNKPFVFLMIEQNTKSPLFMGKVVNPTQK
For B1, the “IC50 of inhibiting pseudoparticle entry into Caco2 cells (rec α1AT Fraction 52)” value [8] was 3060 µg/mL and the “IC50 of inhibiting pseudoparticle entry into Caco2 cells (rec α1AT Fraction 53)” value [8] was 3960 µg/mL.

B2: rhAAT (protein)
chain: B1 chain
With B2 the IC50 [9] was about 350 nM, the SARS-CoV-2 spike expression [10] was “less detectable than Prolastin treated HAECs” and the “inhibition of SARS-CoV-2 replication” value [10] was “more effectively than Prolastin”. For the same molecule, the viral titer [10] was “reduce viral titer”, the “toxicity for Caco-2 cells” value [11] was “nontoxic” and the “inhibition of the entry of SARS-CoV-2 pseudoparticles” value [6] was “inhibits the entry of SARS-CoV-2 similar to Prolastin and camostat mesylate”. The pseudoparticle entry [6] was “almost no pseudoparticle entry”.
